The source of these data is PMC3150435 (Nature structural & molecular biology, 2011).

The target in test [1] is Plasmodium vivax Duffy-Binding Protein region II (RII-PvDBP), amino acids 211-525 (Plasmodium vivax) (UniProt P22290). Description: AUC.
Test [2] has as its target Plasmodium vivax Duffy-Binding Protein region II (RII-PvDBP), amino acids 211-525 (Plasmodium vivax, UniProt P22290 211-525). The experiment in a line: ITC.

Plasmodium vivax Duffy-Binding Protein region II (RII-PvDBP), amino acids 211-525, sequence (P22290 211-525): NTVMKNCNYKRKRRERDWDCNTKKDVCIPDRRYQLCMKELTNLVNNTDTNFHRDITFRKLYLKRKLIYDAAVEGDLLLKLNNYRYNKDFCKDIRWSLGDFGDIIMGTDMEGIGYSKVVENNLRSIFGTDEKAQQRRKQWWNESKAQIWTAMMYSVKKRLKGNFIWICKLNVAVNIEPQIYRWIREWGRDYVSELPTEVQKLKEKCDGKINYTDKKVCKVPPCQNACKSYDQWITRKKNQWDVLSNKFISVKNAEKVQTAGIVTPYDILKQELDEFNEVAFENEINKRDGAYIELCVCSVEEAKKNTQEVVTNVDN

As for “Plasmodium vivax Duffy-Binding Protein region II (RII-PvDBP), amino acids 211-525 (from UniProt P22290 211-525) (domain or fragment)”, the stoichiometry N in test [1] was 2.

B1: DARC1-60 (N-terminal 60 amino acids of Duffy Antigen/Receptor for Chemokines) with C4A, C51A and C54A, unsulfated (domain or fragment, UniProt Q16570 1-60, looked up)
chain: MGNALHRAELSPSTENSSQLDFEDVWNSSYGVNDSFPDGDYGANLEAAAPAHSANLLDDS
B1: in test [2], the “stoichiometry N” value was determined as 1.
